Assay results taken from patent publication EP4467153A1, “CONSTRAINED PEPTIDE INHIBITORS OF LRRK2-FADD INTERACTIONS” (University of Georgia Research Foundation, Inc., priority 2023, dated 2024).
“Also recorded” adds a separate entry of the source. Positions of bridges follow the written chain, without caps; N, C: chain ends. Non-standard residues stand in square brackets, D forms with d. Primed or numbered codes have the meaning given here. FAM = 5(6)-carboxyfluorescein label; S5 = C=CCCC[C@](C)(N)C(=O)O; PEG3′ = PEG3 spacer

Columns and labels:
Format in all cases: cell-based
HEK293T cells = test: Cellular uptake of FAM-labeled peptides in HEK293T cells (fluorescence imaging)
Text: • FIGs. 1A-1D depict the design and structure of constrained peptides targeting the LRRK2-FADD PPI. (FIG. 1A) Structural representation of the region of the LRRK2 ARM domain in which the FADD-binding motif is located, shown with the fragment of the FADD death domain that binds LRRK2. (FIG. 1B) Highlight schematic of the relevant binding domains within LRRK2 and FADD, and the corresponding amino acid sequence that mediates this PPI is highlighted. (FIG. 1C) Schematic representation of the solid phase peptide synthesis, highlighting the placement of the synthetic amino acids for the placement of the peptide staple. (FIG. 1D) Sequences of the five stapled peptides synthesized, with the position of the synthetic residues in each peptide indicated by an asterisk. • FIGs. 2A-2B depict the cellular uptake of stapled vs. native peptides. (FIG. 2A) HEK293T cells were incubated with 5 µM of non-stapled control or constrained FARMS for a period of 24 hr. […] In the eluate, a dose-dependent reduction of FADD was detected with increasing concentrations of FARMS. […] (FIG. 4B) The percentage of transfected neurons with apoptotic nuclear features was determined in a blinded fashion. […] (FIG. 5B) The band intensities in FIG. 5A were quantified using Image J (n=2). […] (FIG. 5C) Phosphorylation of endogenous RablO in HEK293T cells by over-expressed WT or R1441C-LRRK2 was determined by Western blot, as in FIG. 5A. […]

R1441C-LRRK2 = molecular target: T1, R1441C-LRRK2 (Homo sapiens, UniProt Q5S007, R1441C); test: LRRK2 kinase function in HEK293T cells over-expressing R1441C-LRRK2, endogenous Rab10 (western blot); details: increasing doses of peptide
T1 construct: expressed in transfected cells; host or cells: HEK293T
Experimental: (§1) Assessment of LRRK2 kinase function. To determine whether peptides targeting the LRRK2-FADD PPI could also alter kinase function, LRRK2 activity was assessed in a cellular setting, through the phosphorylation of an endogenous substrate (pT73-Rab10), as well as auto-phosphorylation (pS1292-LRRK2). […] Parallel cultures were transfected with only WT or R1441C-LRRK2; and endogenous levels of phosphorylated RablO were assessed. Following 72hr of total expression, the cells were washed in cold PBS and collected. Cell lysis was performed using the following buffer: 50mM Tris HCl, pH 7.5; 1mM EGTA; 0.27 M sucrose; 1% Triton X-100; supplemented with protease and phosphatase inhibitor cocktails, and cell extracts stored at -80°C until use. The extracts were separated by SDS-PAGE and proteins transferred to nitrocellulose membranes, which were probed for total/pS1292-LRRK2, total/pT73-Rab10, or β-actin. For quantification, the band intensities for phosphorylated Rab 10 or LRRK2 were normalized to total expression of the respective protein.

G2019S-LRRK2 = molecular target: T2, G2019S-LRRK2 (Homo sapiens, UniProt Q5S007, G2019S); test: LRRK2 kinase function in HEK293T cells co-transfected with G2019S-LRRK2 and Flag-Rab10 (western blot); details: G2019S-LRRK2 + Rab10, peptide at indicated concentrations, 24hr
T2 construct: expressed in transfected cells; host or cells: HEK293T
Experimental: Since the peptides were designed to block LRRK2 from interacting with FADD, they should not have any effect on the catalytic kinase activity of LRRK2. To determine whether the PPI-disrupting FARMS peptide alters LRRK2 kinase activity in cells, HEK293T cells were co-transfected with WT or G019S-LRRK2 together with Rab10. Cells over-expressing mutant LRRK2 and human WT RablO were treated with FARMS and the cell extracts were probed for multiple indices of LRRK2 kinase activity including phosphorylated Rab10 and pS1292-LRRK2.
as §1, with “The extracts were separated by SDS-PAGE and proteins transferred to nitrocellulose membranes, which were probed for total/pS1292-LRRK2, total/pT73-Rab10, or β-actin.” left out

T2 sequence (Q5S007 whole entry G2019S): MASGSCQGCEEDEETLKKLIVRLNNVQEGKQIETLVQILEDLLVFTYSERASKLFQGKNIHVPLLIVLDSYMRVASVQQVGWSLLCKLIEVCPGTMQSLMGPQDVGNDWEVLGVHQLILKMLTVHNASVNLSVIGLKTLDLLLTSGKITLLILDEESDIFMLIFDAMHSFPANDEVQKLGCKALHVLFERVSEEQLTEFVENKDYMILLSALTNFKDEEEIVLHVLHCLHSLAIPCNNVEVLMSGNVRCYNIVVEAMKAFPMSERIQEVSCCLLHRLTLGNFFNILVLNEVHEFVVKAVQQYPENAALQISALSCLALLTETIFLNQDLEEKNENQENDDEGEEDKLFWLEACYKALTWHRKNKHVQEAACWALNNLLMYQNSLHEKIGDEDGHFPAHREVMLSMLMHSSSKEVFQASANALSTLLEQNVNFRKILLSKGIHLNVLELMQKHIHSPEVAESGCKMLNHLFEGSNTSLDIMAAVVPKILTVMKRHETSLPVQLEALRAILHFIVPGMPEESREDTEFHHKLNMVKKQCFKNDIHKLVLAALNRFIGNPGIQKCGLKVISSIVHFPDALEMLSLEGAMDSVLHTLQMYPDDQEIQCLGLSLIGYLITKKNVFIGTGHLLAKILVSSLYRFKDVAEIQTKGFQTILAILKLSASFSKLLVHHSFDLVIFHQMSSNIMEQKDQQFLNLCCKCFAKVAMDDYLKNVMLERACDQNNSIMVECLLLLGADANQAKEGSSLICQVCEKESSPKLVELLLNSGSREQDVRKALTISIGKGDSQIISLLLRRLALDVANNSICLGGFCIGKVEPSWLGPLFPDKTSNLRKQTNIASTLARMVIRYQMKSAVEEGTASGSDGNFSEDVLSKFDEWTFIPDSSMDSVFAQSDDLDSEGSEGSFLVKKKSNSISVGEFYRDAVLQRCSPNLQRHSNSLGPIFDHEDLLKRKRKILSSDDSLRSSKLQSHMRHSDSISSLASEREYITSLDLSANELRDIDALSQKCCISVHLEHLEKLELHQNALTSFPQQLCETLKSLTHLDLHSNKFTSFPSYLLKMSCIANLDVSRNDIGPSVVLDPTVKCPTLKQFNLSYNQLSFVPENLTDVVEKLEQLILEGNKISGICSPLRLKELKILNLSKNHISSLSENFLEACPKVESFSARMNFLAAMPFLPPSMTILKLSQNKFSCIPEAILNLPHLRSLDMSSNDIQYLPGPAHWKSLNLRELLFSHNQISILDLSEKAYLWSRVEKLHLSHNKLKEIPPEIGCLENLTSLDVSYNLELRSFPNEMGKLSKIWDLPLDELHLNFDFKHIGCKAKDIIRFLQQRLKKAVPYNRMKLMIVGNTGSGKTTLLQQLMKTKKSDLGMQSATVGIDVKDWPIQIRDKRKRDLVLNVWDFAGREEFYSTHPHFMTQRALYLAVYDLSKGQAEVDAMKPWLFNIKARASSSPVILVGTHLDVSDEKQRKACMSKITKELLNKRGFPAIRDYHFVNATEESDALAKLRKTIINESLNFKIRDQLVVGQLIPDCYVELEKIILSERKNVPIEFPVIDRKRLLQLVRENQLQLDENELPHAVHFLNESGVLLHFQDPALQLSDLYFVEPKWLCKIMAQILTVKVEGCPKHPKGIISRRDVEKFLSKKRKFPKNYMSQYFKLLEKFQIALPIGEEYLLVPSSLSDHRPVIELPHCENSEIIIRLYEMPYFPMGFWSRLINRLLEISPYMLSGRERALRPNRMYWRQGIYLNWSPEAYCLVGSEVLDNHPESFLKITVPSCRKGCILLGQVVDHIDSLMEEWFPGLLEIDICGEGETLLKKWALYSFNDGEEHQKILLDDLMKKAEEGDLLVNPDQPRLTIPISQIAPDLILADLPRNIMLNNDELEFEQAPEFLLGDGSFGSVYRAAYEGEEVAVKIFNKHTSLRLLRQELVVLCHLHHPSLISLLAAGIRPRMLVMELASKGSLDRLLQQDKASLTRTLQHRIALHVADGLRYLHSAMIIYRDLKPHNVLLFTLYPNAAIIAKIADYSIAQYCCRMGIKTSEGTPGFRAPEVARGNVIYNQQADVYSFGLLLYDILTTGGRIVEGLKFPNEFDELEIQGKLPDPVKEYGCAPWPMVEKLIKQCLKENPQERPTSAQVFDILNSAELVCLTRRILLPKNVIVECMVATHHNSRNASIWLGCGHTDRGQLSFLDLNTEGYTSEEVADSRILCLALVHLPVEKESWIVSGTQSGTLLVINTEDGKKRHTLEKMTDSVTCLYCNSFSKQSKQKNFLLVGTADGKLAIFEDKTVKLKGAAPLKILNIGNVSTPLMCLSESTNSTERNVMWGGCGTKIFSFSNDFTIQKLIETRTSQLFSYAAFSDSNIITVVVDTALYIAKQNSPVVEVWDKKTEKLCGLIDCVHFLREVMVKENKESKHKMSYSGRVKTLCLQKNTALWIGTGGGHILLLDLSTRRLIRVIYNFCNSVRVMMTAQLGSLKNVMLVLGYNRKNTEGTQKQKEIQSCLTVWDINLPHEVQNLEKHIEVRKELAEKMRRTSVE
T1 sequence (Q5S007 whole entry R1441C): as the sequence (Q5S007 whole entry G2019S) above, with R1441C, S2019G counted along it

## FARM5: FAM-labeled hydrocarbon-stapled FADD Armadillo domain peptide; mass fits SEQ ID NO. 6 KVADLVQEVQQAXDLQXRSK ({FAM-PEG3′}-KVADLVQEVQQA[S5]DLQ[S5]RSK-NH2; staple 13-17; also: FAM label, optionally 5(6)FAM-PEG3 on N-terminal lysine) [FAM-labeled hydrocarbon-stapled FADD Armadillo domain peptide; 6 …XDLQXRSK]
HEK293T cells; 5 µM FAM-labeled peptide, 24 hr
  cellular uptake (permeation of cells): clear diffuse fluorescent signal along with a few visible puncta was observed throughout cells
HEK293T cells; 0.1 or 10 µM, 24hr
  dose-dependency of uptake of FAM-labeled peptide: dose-dependent
R1441C-LRRK2
  phosphorylation of endogenous Rab10 (pT73) by R1441C-LRRK2: un-affected
G2019S-LRRK2
  phosphorylation of over-expressed Rab10 (pT73): unexpected increase
G2019S-LRRK2; listed as FARMS
  auto-phosphorylation of LRRK2 at Ser1292 (pS1292-LRRK2): any loss in phosphorylation of pS1292-LRRK2 or RablO could be detected; also recorded: un-affected
